Columns and labels:
Experiment in all cases: ELISA, lectin-captured E1E2 lysate, Ab 1 ug/ml
[1] = biological target: E1E2 complex (H77) with E1 mutation H316A (HCV genotype 1a, isolate H77) (UniProt P27958)
[2] = biological target: E1E2 complex (H77) with E1 mutation D346A (HCV genotype 1a, isolate H77) (UniProt P27958)
[3] = biological target: E1E2 complex (H77) with E2 mutation G436A (HCV genotype 1a, isolate H77) (UniProt P27958)
[4] = biological target: E1E2 complex (H77) with E2 mutation Y624A (HCV genotype 1a, isolate H77) (UniProt P27958)
[5] = biological target: E1E2 complex (H77) with E1 mutation Y201A (HCV genotype 1a, isolate H77) (UniProt P27958)
[6] = biological target: E1E2 complex (H77) with E1 mutation W320A (HCV genotype 1a, isolate H77) (UniProt P27958)
[7] = biological target: E1E2 complex (H77) with E1 mutation Q193A (HCV genotype 1a, isolate H77) (UniProt P27958)
[8] = biological target: E1E2 complex (H77) with E1 mutation N205A (HCV genotype 1a, isolate H77) (UniProt P27958)
[9] = biological target: E1E2 complex (H77) with E1 mutation Y276A (HCV genotype 1a, isolate H77) (UniProt P27958)
[10] = biological target: E1E2 complex (H77) with E1 mutation Y192A (HCV genotype 1a, isolate H77) (UniProt P27958)
[11] = biological target: E1E2 complex (H77) with E1 mutation D321A (HCV genotype 1a, isolate H77) (UniProt P27958)
[12] = biological target: E1E2 complex (H77) with E1 mutation S198A (HCV genotype 1a, isolate H77) (UniProt P27958)
[13] = biological target: E1E2 complex (H77) with E1 mutation D263A (HCV genotype 1a, isolate H77) (UniProt P27958)
[14] = biological target: E1E2 complex (H77) with E1 mutation G350A (HCV genotype 1a, isolate H77) (UniProt P27958)
[15] = biological target: E1E2 complex (H77) with E1 mutation N196A/N305A (HCV genotype 1a, isolate H77) (UniProt P27958)
[16] = biological target: E1E2 complex (H77) with E1 mutation R317A (HCV genotype 1a, isolate H77) (UniProt P27958)
[17] = biological target: E1E2 complex (H77) with E1 mutation H298A (HCV genotype 1a, isolate H77) (UniProt P27958)
[18] = biological target: E1E2 complex (H77) with E1 mutation T255A (HCV genotype 1a, isolate H77) (UniProt P27958)
[19] = biological target: E1E2 complex (H77) with E1 mutation P341A (HCV genotype 1a, isolate H77) (UniProt P27958)
[20] = biological target: E1E2 complex (H77) with E2 mutation T435A (HCV genotype 1a, isolate H77) (UniProt P27958)
[21] = biological target: E1E2 complex (H77) with E1 mutation G311A (HCV genotype 1a, isolate H77) (UniProt P27958)
[22] = biological target: E1E2 complex (H77) with E2 mutation N448A (HCV genotype 1a, isolate H77) (UniProt P27958)
[23] = biological target: E1E2 complex (H77) with E1 mutation G354A (HCV genotype 1a, isolate H77) (UniProt P27958)
[24] = biological target: E1E2 complex (H77) with E1 mutation A319G (HCV genotype 1a, isolate H77) (UniProt P27958)
[25] = biological target: E1E2 complex (H77) with E1 mutation S307A (HCV genotype 1a, isolate H77) (UniProt P27958)
[26] = biological target: E1E2 complex (H77) with E2 mutation A642G (HCV genotype 1a, isolate H77) (UniProt P27958)
[27] = biological target: E1E2 complex (H77) with E1 mutation A269G (HCV genotype 1a, isolate H77) (UniProt P27958)
[28] = biological target: E1E2 complex (H77) with E1 mutation H352A (HCV genotype 1a, isolate H77) (UniProt P27958)
[29] = biological target: E1E2 complex (H77) with E1 mutation W326A (HCV genotype 1a, isolate H77) (UniProt P27958)

Substance mouse anti-E1 MAb A4 (antibody) has a Binding relative to wt (%) [1] of 95%, a Binding relative to wt (%) [2] of 87% and a Binding relative to wt (%) [3] of 96%. It also gave a Binding relative to wt (%) [4] of 121%, a Binding relative to wt (%) [5] of 5% and a Binding relative to wt (%) [6] of 105%. It also gave a Binding relative to wt (%) [7] of 81%, a Binding relative to wt (%) [8] of 96% and a Binding relative to wt (%) [9] of 82%. For the same substance, the Binding relative to wt (%) [10] was 134%, the Binding relative to wt (%) [11] was 91% and the Binding relative to wt (%) [12] was 61%. It also gave a Binding relative to wt (%) [13] of 96%, a Binding relative to wt (%) [14] of 79% and a Binding relative to wt (%) [15] of 69%. It also gave a Binding relative to wt (%) [16] of 95%, a Binding relative to wt (%) [17] of 164% and a Binding relative to wt (%) [18] of 106%. For the same substance, the Binding relative to wt (%) [19] was 101%, the Binding relative to wt (%) [20] was 117% and the Binding relative to wt (%) [21] was 89%. For the same substance, the Binding relative to wt (%) [22] was 97%, the Binding relative to wt (%) [23] was 105% and the Binding relative to wt (%) [24] was 101%. It also gave a Binding relative to wt (%) [25] of 157%, a Binding relative to wt (%) [26] of 137% and a Binding relative to wt (%) [27] of 47%. The Binding relative to wt (%) [28] was 85% and the Binding relative to wt (%) [29] was 72%.

From patent publication US20110311550A1
